# Measurements as given in the RNAGym collection of RNA variant scans (doi:10.1073/pnas.2313332121).
# B1: TPR t1 (parent)
# chain: GACCAAUCUGCCCUCAGAGCUCGAGAACAUCUUCGGAUGCAGAGGAGGCAGGCUUCGGUGGCGCGAUAGCGCCAACGUCCUCAACCUCCAAUGCAUCCCACCACAUGAUGAUGCCUGAAGAGCCUUGGUUUUUUG
# Variants of: B1
# Assay: polymerase ribozyme fitness, log enrichment relative to wild type (log ratio); higher = more active; in vitro selection for triplet polymerase activity
# In short: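 Genotype fitness is the logarithm of its enrichment divided by wild-type enrichment, using inverse-variance-weighted averages of replicates. That logarithm is base 2. Enrichment was measured by Illumina sequencing of input and output libraries from one triplicate in vitro selection round, with frozen incubation at −7 °C, on PCR-built, transcribed mutant libraries of each subunit of a heterodimeric triplet polymerase ribozyme, retaining genotypes with ≥10 input reads and ≥1 read per output.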
row,Variant,polymerase ribozyme fitness (log ratio)
1,GACCACUCUGCCCUCAGAGCUCGAGAACAUCUUCGGAUGCAGAGGAGGCAGGCUUCGGUGGCGCGAUAGUGCGAACGUCCUCAACCUCCAAUGCAUCCCACCACAUGAUGAUGCCUGAAGAGCCUUGGUUUUUUG [A6C C70U C73G],-2.81
2,GACCACUCUGCCCUCAGAGCUCGAGAACAUCUUCGGAUGCAGAGGAGGCAGGCUUCGGUGGCGCGAUAGCGCCAACGUCCUCAACCUCCAAUGCAUCCCUCCACAUGAUGAUGCCUGAAGAGCCUUGGUUUUUUG [A6C A100U],-0.814
3,GACCACUCUGCCCUCUGAGCUCGAGAACAUCUUCGGAUGCAGAGGAGGCAGGCUUCGGUGGCGCGAUAGUGCCAACGUCCUCAACCUCCAAUGCAUCCCACCAAAUGAUGAUGCCUGAAGAGCCUUGGUUUUUUG [A6C A16U C70U C104A],-4.73
4,GACCACUCUGUCCUCAGAGCUCGAGAACAUCUUCGGAUGCAGAGGAGGAAGGCUUCGGUGGCGCGAUAGCGCCAACGUCCUCAACCUCCAAUGCAUCCCAACACAUGAUGAUGCCUGAAGAGCCUUGGUUUUUUG [A6C C11U C49A C101A],-2.17
5,GACCACUGUGCCCUCAGAGCUCGAGAACAUCUUCGGAUGCAGAGGAGGCAGGCUUCGGUGGCGCGAUAGCGCCAACGUCCUCAACCUCCAAGGCAUCCCACCACAUGAUGAUGCCUGAAGCGGCUUGGUUUUUUG [A6C C8G U92G A121C C123G],0.289
6,GACCACUCUGCCCUCAGAGCUUGAGAACAUCUUCGGAUGCAGAGGAGGCAGGCUUCGGUGGUGCGAUAGCGCCAACGUUCUCAACCUCCAAUGCAUCCUACCACAUGAUGAUGCCUGAAGAGCCUUGGUUUUUUG [A6C C22U C62U C79U C99U],-5.96
7,GACCACUCUGCCCUCAGAGCUCGAGAACAUCUUCGGAUGCAGAGGAGGCAGGCUUCGGUGGCGCGAUAGCGCCAACGUCCUCAACCUCCAAUGCAUCCCACCACAUGAUGAUGUCUGAAGAGCCUUGGUUUUUUG [A6C C114U],-2.3
8,GACCACUCUGCCCUCAGAGCUCGAGAACAUCUUCGGAUGCAGAGGAGGCAGGUUUCGGUGGCGCGAUAGCGCCGACGUCUUCAACCUCCAAUGCAUCCCACCACAUGAUGAUGCCUGGAGAGCCUUGGUUUUUUG [A6C C53U A74G C80U A118G],-1.6
9,GACCACUCUGCCCUCAGCGCUCGAGAACAUCUUCGGAUGCAGAGGAGGCAGGCUUCGGUUGCGCGAUAGCGCCAACGUCCUGAACCUCCAAUGCAUCCCACCACAUGAUGAUGCCUGAAGAGCCUUUGUUUUUUG [A6C A18C G60U C82G G127U],-5.44
10,GACCACUCUGCACUCAGAGCUCGAGAACAUCUUCGGAUGCAGAGGAGGCAGGCGUCGGUGGCGCGAUAGCGCCAACGUCCUCAACCUCCAAUGCAUCCCACCACAUGAUGAUGCCUGAAGAGCCUUGGUUUUUUG [A6C C12A U54G],-1.08
11,GACCACUCUGCCCUCAGAGCUCGAGAACAUCUUCGGAUGCAGAGGAGGCAGGGUUCGGUGGCGCGAUAGCGACAACGUCCUCAACCUCCAAUGCAUCCCACCACAUGAUGAUGCCUGAAGAGUCUUGGUUUUCUG [A6C C53G C72A C123U U133C],0.968
12,GACCACUCUGCCCUCAGAGCUCGAGAACAUCUUCGGAUGCAGAGGAGGCAGGCUUCGGUGGCGCGAUAGCGCCAACGUCCUCAAUCUCCAAUGCAUCCCAUCACAUGAUUAUGCCUGAAGAGCCUUGGUUUUUUG [A6C C85U C101U G110U],-3.01
13,GACCACUGUGCCCUCAGAGCUCGAGAACAUCUUCGGAUGCAGAGGAGGCAGGCUUCGGUGGCGCGAUAGCGACAACGUCCUCAACCUCCAAUGCAUCCCACCACAUGAUGAUGCCUGAAGAGCCUUGGUUUUUUG [A6C C8G C72A],0.431
14,GACCACUCUGCCCUCAUAGCUCGAGAACAUCUUCGGAUGCAGAGGAGGCAGGCUUCGGUGGCGCGAUAGCGCCAACGUCCUCAACCUCCAAUGCAGCUCACCACAUGAUGAUGCCUGAAGAGUCUUGGUUUUUUG [A6C G17U U96G C98U C123U],-6.92
15,GACCACUCUCCCCUCAGAGCUCGAGAACAUCUUCGUAUGCAGAGGAGGCAGGCUUCGGUGGCGCGAUAGCGCCAACGUCCUCAACCUCCAAUGCAUCCCACCACAUGAUGAUGCCUGAAGAGCCUUGGUUUUUUG [A6C G10C G36U],-2.24
16,GACCACUCUGCCCUCAGAGCUCGAGAACAUCUUCGGAUGCAGAGGAGGCAGGCUUCGGUGGCGCGAUAGCGCGAACGUCCUCAACCUCCAAUGCAUCCCACCACAUGAUGAUGCCUGAAGAGCCUUGGUUUUUUG [A6C C73G],-0.957
17,GACCUAUCUGCCCUCAGAGCUCGAGAACAUCUUCGGAUGCAGAGGAGGCAGGCUUCGGUGGCGCGAUAGCGCCAACGUCCUCAACCUCCAAUGCAUCCCACCACAUGAUGAUGCCUGAAGAGCCUUGGUUAUUUG [A5U U131A],-2.48
18,GACCACUCUGCCCUCAGAGCUCGAGAACAUCUUCGGAUGCAGAGGAGGCAGGCUUCGGUGGCGCGAUAGCGCCAAGGUCCCCAAUCUCCAAUGCAUCCUACCACAUGAUGAUGCCUGAAGAGCCUUGGUUUUUUG [A6C C76G U81C C85U C99U],-5.11
19,GACCACUCUGACCUCAGAGCUCGAGAACAUCUUCGGAUGCAGAGGAGGCAGGCUUCGGUGGCGCGAUAGCGCCAACGUCCUCAACCUCCAAUGCAUCCCACCACAUGAUGAUGCCUGAAGAGCCUUGGUUUUUUG [A6C C11A],-2.65
20,GACCACUCUGCCCUCAGAGCUCGAGAACAUCUUCGGAUGCAGAGGAGGCAGGCUUCGGUGGCGCGAUAGCGCCAACGUCCUCAACCUGCAAUGCAUCCCACCACAUGAUGAUGCGUGAAGAGCCUUGGUUUUUUG [A6C C88G C115G],-4.52
21,GACCACUCUGCCAUCAGAGCUCGAGAACAUCUUCGGUUGCAGAGGAGGCAGGCUUCGGUGGCGCGAUAGCGCCAACGUCCUUAACCUCCAAUGCAUCCCACCACAUGAUGAUGCCUGAAGAGCCUUGGUUUUUUG [A6C C13A A37U C82U],-2.7

row,Variant,polymerase ribozyme fitness (log ratio)
1,GACCACUCUGCUCUCAGAGCUCGAGAACAUCUUCGGAUGCAGAGGGGGCAGGCUUCGGUGGCGCGAUAGCGCCAACGUCCUCAACCUCCAAUGCAUCCCACCACAUGAUGAUGCCUGGAGAGCCUUGGUUUUUUG [A6C C12U A46G A118G],0.142
2,GACCACUCUGGCCUCAGAGCUCGAGAACAUCUUCGUAUGGAGAGGAGGCAGGCUUCGGUGGCGCGAUAGCGCCAACGUCCUCAACCUCCAAUGCAUCCCACCACAAGAUGAUGCCUGAAGAGCCUUGGUAUUUUG [A6C C11G G36U C40G U106A U130A],-4.89
3,GACCACUCUGCCCUCAGAGCUCGAGAACAUCUUCGGAUGCAGAGGAGGCAGGGUUCAGUGGCGCGAUAGCGCAAACGUGCUCAACCUCCAAUGCAUCCCACCACAUGAUGAUCCCUGAAGAGCCUUGGUUUUUUG [A6C C53G G57A C73A C79G G113C],-4.89
4,GACCACUCUGCCCUCAGAGCUCGAGAACAUCUUCGGAUGCAGAGGAGGCAGGCUUCGGUGGCGCGAUAGCGCGAACGUCCUCAACCUCCAAUUCAUCCCACCACAUGAUGAUGCCUGAAGAGCCUUGUUUUUUUG [A6C C73G G93U G128U],-5.16
5,GACCACUCUGCCCUCAGAGCUCGAGAACAUCUUCGGAUGCAGAGGAGGCAGGCUUCGGUGGCGCGAUAGCGCCAACGUCCUCAACCUCCAAUGCAUCCCACCACAUGAUGAUGCCUGAAGAGCCUUGGUUUUUUG [A6C],-0.236
6,GACCACUCUGCCCUGAGAGCUCGAGAACAUCUUCGGAUGCAGAGGAGGCAGGCUGCGGUGGCGCGAUAGCGCCAACGUCCUCAACCUCCAAUGGAUCCCACCACAUGAUGAUGCCUGAAGAGCGUUAGUUUUUUG [A6C C15G U55G C94G C124G G127A],-3.17
7,GACCACUCUGCCCUCAGAGCUCGAGAACAUCUUCGGAUGCAGAGGAGGCAGGCUUCGGUGGGGCGAUAGCGCCAACGUCCUCAACCUCCAAUGCAUCCCACCACAUGAUGAUGCCUGAAGAGCCUUGGUUUUUUG [A6C C62G],-2.28
8,GACCACUCUGCCCUCAGAGCUCGAGGACAUCUUCGGAGGCAGAGGAGGCAGGGUUCGGUGGCGCGAUAGCGCCAACGUCCUCAACCUCCAAUGCAUCCCACCACAUGAUGAUGCCUGAAGAGCCUUGGUUUUUUG [A6C A26G U38G C53G],-5.37
9,GACCACUCUGCCCUCAGAGCUCGAGAACAUCUUCGGCUGCAGAGGAGGCAGGCUUCGGUGGCGCGAUAGCGCCAACGUCCUCAACCUCCAAUGCAUCCCACCACAUGAUGUUGCCUGAAGAGCCUUGGUUUUUUG [A6C A37C A111U],-3.49
10,GACCACUCUGCCCUCAGAGCUCGAGAACAUCUUCGGAUGUAGAAGAGGCAGGCUUCGGUGGCGCGAUAGCGCCAACGUCCUCAACCUCCAAUGCAUCCCACCACAUGAUGAUGCCUGAAGUGCCUUGGUUUUUUG [A6C C40U G44A A121U],0.36
11,GACCACUCUGCCCUCAGAGCUCGAGAACAUCUUCGGAUGCAGAGGAGGCCGGCUUCGGCGGCGCGAUAGCGUCAACGUCCUCAACCUCCAAGGCAUCCCACCACAUGAUGAUGCCUGAAGAGCCUUGGUUUUUUG [A6C A50C U59C C72U U92G],-4.39
12,GACCACUCUGCCCUCAGAGCUCGAGAACAUCUUCGGAUGCAGAGGAGGCAGGGUUCGGUGGCGCGAUAGCGCCAACGUCCUCAACCUCCAAUGCAUCCCACCACAUGAUGAUGCCUGAAGAGCCUUGGUUUUUUG [A6C C53G],-0.863
13,GACCACUCUGCCCUCAGAGCUCGAGAACAUCUUCGGAUGCCGAGGAGGCAGGCUUCGGUGGCGCGAUAGCGCCAACGUCCUCAACCUCCAAUGAAUCCCACCACAUGAUGAUGCCUGAAGAGCCUUGGGUUUUUG [A6C A41C C94A U129G],-4.39
14,GACCACUCUGCCCUCAGAGCUCGAGAACAUCUUCAGAUGCAGAGGAGGCAGGCUUCGGUGGCGCGAUAGCGCCAACGUCCUCAACCUCCAAUGCAUCCCACCACAUGAUGAUGCCUGAAGAGCCUUGGUUUUUUG [A6C G35A],-4.12
15,GACCACUCUGCCCUCAGAGCUCGAGAACAUCUUCGGAUGCAGAGGAGGCAGGCUUCGGUGGCGCGAUAGCGCCAACGUCCUUAACCUCCAAUGCAUCCCACCACAUGAUGAUGCCUGAAGAGCCUUGGUUUUUUG [A6C C82U],-0.547
16,GACCACUCUGCCCUCAGAGCUCGAGAACAUCUUCGGAUGCAGAGGAGGCAGGCUUCGGUGGCGCGAUAGUGCCAACGUCCUCAACCUCCAAUGCAUCCCACCACAUGAUGAUGCCUGAAGAGCCUUGGAUUUUUG [A6C C70U U129A],-2.82
17,GACCACUCUGUCCUCAGAGCUCGAGAACAUCUUCGGAUGCAGAGGAGGCAGGCUUCGGUGGCGCGAUAACGCCAACGUCCUCAACCUCCACUGCAUCCCACCACAUGAUGAUGCCUGAAGAGCCUUGGUUUUUUG [A6C C11U G69A A91C],-6.12
18,GACCACUCUGCCCUCAGAGCUCGAGAACAUCUUCGGAUGCAGAGGAGGCAGGGUUCGGUGGCGCGAUAUCGCCAACGUCCUCAACCUCCAAUGCAUCCCACCACAUGAUGAUGCCUGAAGAGCCUUGGUUUUUUG [A6C C53G G69U],0.253
19,GACCACUCUACCCUCAGAGCUCGAGAACACCUUCGGAUGCAGAGGAGGCAGGCUUCGGUGGCGCGAUAGCACCAACGUCCUCAACCUCCAAUGCAUCCCACCACAUGAUGAUGCCUGAAGAGCCUUGGUUUUUUG [A6C G10A U30C G71A],-5.5
20,GACCACUCUGCCCUUAGAGCUCGAGAACAUCUUCGGAUGCAGAGGAGGCAGGCUUCGGUGGCGCGAUAGUGCCAACGUCCUCAACCUCCAAUGCAUCCCAACACAUGAUGAUGCCUGAAGAGCCUUGGUGUUUUG [A6C C15U C70U C101A U130G],-4.08
21,GACCACUCUACCCUAAGAGCUCGAAAACAUCUUCGGAUGCAGUGCAGGCAGGCUUCGGUGGCGCGAUAGCGCCAACGUCCUCAACGUCCAAUGCAUCCCACCACAGGAUGAUUCCUGAAGAGCCUUGGUUUUUUG [A6C G10A C15A G25A A43U G45C C86G U106G G113U],-7.45
